Measurements as given in patent US20260116951A1 (DUCENTIS BIOTHERAPEUTICS, published 2026).

Legend:
Human PBMCs = target: T1, Human PBMCs; test: Flow cytometry, % binding on human PBMCs gated on live cells, 1 hour at 37 C, anti-human secondary antibody; the target protein on the cells is not named
T1 construct: No receptor was assigned; also called human PBMCs, gated on live cells
Description: (§1) PBMC cells were re-suspended with a density of 0.1 million cells per assay point, with 50 μL FACS buffer (1×PBS+2% FBS). Dilutions of huCD200-Fc in 50 μL were added, starting at 10 μg/mL with 3-fold dilutions up to 10 concentrations with FACS buffer, and incubated for 1-hour at 37° C. At the end of each time point, cells were collected and washed (addition of 200 μL FACS buffer and centrifugation at 1400 RPM). 10 μg/mL of anti-human secondary antibody (Abcam Ab98596) was added together with excess Fc block (Innovex Biosciences no. NB309), and incubated for 30 minutes at 4° C. Cells were washed post incubation and stained to check viability (1 μL dye per million cells per mL 1×PBS, ThermoFisher C34557A) for 20 minutes at 4° C. Cells were washed and fixed with Fixation buffer (100 μL per test, BD Sciences 554655) at 4° C. for 20 minutes. Post incubation, cells were washed and the pellet was re-suspended in FACS buffer (100 μL per test) for data acquisition on the flow cytometer.

Cyno PBMCs = target: T2, Cyno PBMCs; test: Flow cytometry, % binding on cynomolgus PBMCs gated on live cells, 1 hour at 37 C, anti-human secondary antibody; the target protein on the cells is not named
T2 construct: No receptor was assigned; also called cynomolgus monkey PBMCs, gated on live cells
Description: as §1

[1] = target: T3, Recombinant Human CD200R, His-tagged (Creative Biomart CD200R1-320H) (human, UniProt Q8TD46 27-266); test: SPR (BIAcore T200), CD200-Fc captured on anti-human Fc, CD200R flowed, 25 C, 1:1 fit
T3 construct: Bought; also called human CD200 receptor; not shown: His tag
T3 sequence (looked up): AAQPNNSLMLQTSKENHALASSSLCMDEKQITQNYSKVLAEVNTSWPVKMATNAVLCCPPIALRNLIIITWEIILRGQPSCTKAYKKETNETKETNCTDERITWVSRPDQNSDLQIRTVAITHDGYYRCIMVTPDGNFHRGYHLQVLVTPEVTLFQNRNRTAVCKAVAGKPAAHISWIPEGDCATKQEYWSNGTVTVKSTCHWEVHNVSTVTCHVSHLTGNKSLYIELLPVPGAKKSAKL
Description: The experiments were performed on a GE Healthcare BIAcore T200. Human, cynomolgus and mouse CD200R proteins were purchased from Creative Biomart (CD200R1-320H, CD200R1-3483C, CD200R1-3280M). All measurements were performed in duplicate.
For human CD200 constructs: anti-human Fc (GE Healthcare) was covalently immobilized on a BIAcore CM5 sensor chip (Cytiva, BR100530) by amine coupling using a Cytiva kit (BR100839) following the manufacturer's instructions, targeting immobilization of 8,000-11,000 RU. CD200-Fc proteins were diluted to 0.5 μg/mL to 4 μg/mL in running Buffer (1×HBS-EP+pH7.4 (Cytiva BR100669), HEPES Buffered Saline pH 7.4 containing 3 mM EDTA and 0.05% v/v Surfactant P20) and flowed for 25 to 100 seconds at 10 μL/min over the immobilized Anti-Human IgG Fc, with a stabilization time of 60 seconds. […]
For mouse CD200 constructs, muCD200R-Fc (Creative Biomart CD200R1-458M) diluted to 1 μg/mL in running buffer was flowed over the immobilized Anti-Human IgG Fc, with CD200 monomers serially diluted and flowed over captured CD200R. […] Data analysis: experimental sensorgrams were analyzed in BIAevaluation software (GE Healthcare). […] Closeness of fit was determined by algorithms provided by the manufacturer in the BIAevaluation software, and data accepted if the Chi² value was less than 10% of Rₘₐₓ, and the U value was less than or equal to 15.

[2] = target: T4, Human CD200R, full length, on transduced U937 cells (U937-CD200R) (human, UniProt Q8TD46 25-348); test: cell-based or functional assay
T4 sequence (looked up): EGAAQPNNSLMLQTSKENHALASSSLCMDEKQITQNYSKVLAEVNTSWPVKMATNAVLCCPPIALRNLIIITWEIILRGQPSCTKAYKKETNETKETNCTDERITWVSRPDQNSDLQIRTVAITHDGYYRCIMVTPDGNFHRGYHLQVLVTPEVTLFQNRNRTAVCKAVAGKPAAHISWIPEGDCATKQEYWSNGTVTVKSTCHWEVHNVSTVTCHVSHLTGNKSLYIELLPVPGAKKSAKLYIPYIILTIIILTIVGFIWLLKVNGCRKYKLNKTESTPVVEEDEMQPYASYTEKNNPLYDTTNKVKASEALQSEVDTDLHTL

[3] = target: T5, Mouse CD200R protein (Creative Biomart CD200R1-3280M) (mouse, UniProt Q9ES57 26-238); test: SPR (BIAcore)
T5 construct: also called Murine CD200R1; murine CD200R
T5 sequence (looked up): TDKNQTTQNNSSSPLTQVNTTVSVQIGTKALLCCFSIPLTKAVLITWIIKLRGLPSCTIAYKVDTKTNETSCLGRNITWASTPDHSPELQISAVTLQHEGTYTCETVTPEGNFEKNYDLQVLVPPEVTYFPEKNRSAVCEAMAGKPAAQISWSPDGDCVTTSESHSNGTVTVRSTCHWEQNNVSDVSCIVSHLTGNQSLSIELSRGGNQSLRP

[4] = target: T3, Recombinant Human CD200R, His-tagged …; test: SPR (BIAcore), DS-118 captured (0.5 ug/mL), HuCD200R1 flowed at 100 nM to 6.25 nM, 25 C, 1:1 Binding model, run 1
Description: For human CD200 constructs: anti-human Fc (GE Healthcare) was covalently immobilized on a BIAcore CM5 sensor chip (Cytiva, BR100530) by amine coupling using a Cytiva kit (BR100839) following the manufacturer's instructions, targeting immobilization of 8,000-11,000 RU. CD200-Fc proteins were diluted to 0.5 μg/mL to 4 μg/mL in running Buffer (1×HBS-EP+pH7.4 (Cytiva BR100669), HEPES Buffered Saline pH 7.4 containing 3 mM EDTA and 0.05% v/v Surfactant P20) and flowed for 25 to 100 seconds at 10 μL/min over the immobilized Anti-Human IgG Fc, with a stabilization time of 60 seconds. Between 35 and 250 RUs of CD200-Fc were captured, with higher RUs used for cynomolgus CD200R binding experiments. […] Analysis temperature was 25° C. This was followed by regeneration of the surface with 30-90 second pulse of 3M MgCl₂ flowed at […] flow rate followed by stabilization of the surface with 60 second flow of running buffer.
For mouse CD200 constructs, muCD200R-Fc (Creative Biomart CD200R1-458M) diluted to 1 μg/mL in running buffer was flowed over the immobilized Anti-Human IgG Fc, with CD200 monomers serially diluted and flowed over captured CD200R. Other details were as above. Data analysis: experimental sensorgrams were analyzed in BIAevaluation software (GE Healthcare). The curves obtained were fitted to 1:1 Langmuir binding model by setting Rmax and RI as local parameters. Rate equations using standard parameters (e.g. ligand concentration, time) were used for iterative curve fitting. Closeness of fit was determined by algorithms provided by the manufacturer in the BIAevaluation software, and data accepted if the Chi² value was less than 10% of Rₘₐₓ, and the U value was less than or equal to 15.

B1: DS-118 (mutated human CD200-Fc fusion protein, K130Y, I131Y, IgG4 S228P Fc) (Fc fusion)
chain: QVQVVTQDEREQLYTPASLKCSLQNAQEALIVTWQKKKAVSPENMVTFSENHGVVIQPAYKDKINITQLGLQNSTITFWNITLEDEGCYMCLFNTFGFGYYSGTACLTVYVQPIVSLHYKFSEDHLNITCSATARPAPMVFWKVPRSGIENSTVTLSHPNGTTSVTSILHIKDPKNQVGKEVICQVLHLGTVTDFKQTVNKGPPCPPCPAPEFLGGPSVFLFPPKPKDTLMISRTPEVTCVVVDVSQEDPEVQFNWYVDGVEVHNAKTKPREEQFNSTYRVVSVLTVLHQDWLNGKEYKCKVSNKGLPSSIEKTISKAKGQPREPQVYTLPPSQEEMTKNQVSLTCLVKGFYPSDIAVEWESNGQPENNYKTTPPVLDSDGSFFLYSRLTVDKSRWQEGNVFSCSVMHEALHNHYTQKSLSLSLGK
notes: also called mutated CD200-Fc; mutant CD200-Fc
EC50 (Human PBMCs): 0.29 µg/mL | EC50 (Cyno PBMCs): 1.96 µg/mL | t½ [1]: 37.9 min | inhibition of LPS stimulated IL-6 release from U937-CD200R cells, IC50 [2]: 0.01 µg/mL | binding result [3]: no binding | Kd [4]: 1.21 nM | koff [4]: 0.000278 s⁻¹ | kon [4]: 230000 M⁻¹ s⁻¹
